Source: paper PMC7423155, “RCC1L (WBSCR16) isoforms coordinate mitochondrial ribosome assembly through their interaction with GTPases” (PLoS Genetics, 2020)

Molecular target: T1, STREP2-FLAG-tagged RCC1L^V1 (human, UniProt Q96I51 38-464)
T1 construct: RCC1L (WBSCR16), human, isoform RCC1L^V1, the principal isoform, 464 amino acids as precursor; isoform cDNA expressed in cells and recovered from purified mitochondria; pcDNA5/FRT/TO; carboxy-terminal STREP2 followed by FLAG; also called RCC1L^V1-FLAG; WBSCR16 isoform V1; source: inducible transgenic HEK cell line (doxycycline), in lysate of purified mitochondria; not shown: STREP2, C-terminal, …
T1 sequence (Q96I51 38-464): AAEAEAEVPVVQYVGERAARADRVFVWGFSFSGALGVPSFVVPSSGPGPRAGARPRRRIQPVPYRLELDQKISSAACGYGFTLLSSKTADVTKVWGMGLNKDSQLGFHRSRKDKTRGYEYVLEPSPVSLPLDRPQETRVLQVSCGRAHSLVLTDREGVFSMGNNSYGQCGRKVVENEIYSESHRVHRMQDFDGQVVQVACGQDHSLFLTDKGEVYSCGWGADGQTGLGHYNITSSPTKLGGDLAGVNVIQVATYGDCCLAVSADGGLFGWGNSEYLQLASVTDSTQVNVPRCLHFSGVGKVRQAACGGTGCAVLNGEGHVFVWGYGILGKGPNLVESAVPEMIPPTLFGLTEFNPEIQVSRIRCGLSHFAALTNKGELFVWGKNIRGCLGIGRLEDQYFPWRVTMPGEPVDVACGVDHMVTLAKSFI
Experiment: co-IP; STREP2-FLAG-tagged RCC1L isoform as bait, captured on Strep-Tactin Sepharose overnight from trypsin-treated, sucrose gradient-purified HEK mitochondria lysed with 0.8% DDM; 10 washes; elution with 10 mM desthiobiotin; endogenous proteins in the elution found by immunoblot
Details: partners not purified

B1: GTPBP10 (enzyme, human (endogenous in HEK293T), UniProt A4D1E9 1-387, looked up)
chain: MVHCSCVLFRKYGNFIDKLRLFTRGGSGGMGYPRLGGEGGKGGDVWVVAQNRMTLKQLKDRYPRKRFVAGVGANSKISALKGSKGKDCEIPVPVGISVTDENGKIIGELNKENDRILVAQGGLGGKLLTNFLPLKGQKRIIHLDLKLIADVGLVGFPNAGKSSLLSCVSHAKPAIADYAFTTLKPELGKIMYSDFKQISVADLPGLIEGAHMNKGMGHKFLKHIERTRQLLFVVDISGFQLSSHTQYRTAFETIILLTKELELYKEELQTKPALLAVNKMDLPDAQDKFHELMSQLQNPKDFLHLFEKNMIPERTVEFQHIIPISAVTGEGIEELKNCIRKSLDEQANQENDALHKKQLLNLWISDTMSSTEPPSKHAVTTSKMDII
notes: GTPBP10, mitochondrial GTPase of mtLSU assembly, human; endogenous mitochondrial protein; source: endogenous, lysate of purified HEK mitochondria
fold enrichment in the pull-down over MTG1: 5 fold | fold enrichment in the pull-down over MTG2: 4 fold
